Measured values reported in article PMC8444507 (Signal Transduction and Targeted Therapy, 2021).
“And” between values parts separate entries of the source, which are not always exact repeats. Equal entries are not always repeated.

Target: T1, wild-type human ACE2 peptidase domain (PD) (human, UniProt Q9BYF1 19-615)
T1 construct: also called ACE2/WT; ACE2 WT
Test: SPR
Details: both partners purified

T1 sequence (Q9BYF1 19-615): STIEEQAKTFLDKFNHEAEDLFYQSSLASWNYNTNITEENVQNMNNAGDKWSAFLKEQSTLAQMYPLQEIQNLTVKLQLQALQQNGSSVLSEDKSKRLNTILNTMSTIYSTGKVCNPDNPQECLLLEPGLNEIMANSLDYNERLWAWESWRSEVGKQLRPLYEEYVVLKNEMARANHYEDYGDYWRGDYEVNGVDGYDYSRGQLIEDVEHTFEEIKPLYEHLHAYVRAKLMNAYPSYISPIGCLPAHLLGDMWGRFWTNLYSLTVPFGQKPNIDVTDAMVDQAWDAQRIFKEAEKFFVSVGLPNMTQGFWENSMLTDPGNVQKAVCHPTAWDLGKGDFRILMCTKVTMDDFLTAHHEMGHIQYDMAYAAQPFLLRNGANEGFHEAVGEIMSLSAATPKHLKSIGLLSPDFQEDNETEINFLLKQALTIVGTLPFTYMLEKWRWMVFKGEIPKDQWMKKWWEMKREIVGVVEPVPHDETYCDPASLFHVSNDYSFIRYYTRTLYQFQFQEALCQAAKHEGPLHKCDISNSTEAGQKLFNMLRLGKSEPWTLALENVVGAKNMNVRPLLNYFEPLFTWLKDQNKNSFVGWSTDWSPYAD

B1: SARS-CoV spike receptor-binding domain (S-RBD), wild-type (domain or fragment)
chain: not shown
In the case of B1, the Kd is reported as 523 nM and 971 nM and 500 nM.
